Literature values in publication PMC4376447.

Target: S100A10 (Homo sapiens) (UniProt P60903)
Experiment: ITC

Sequence of UniProt P60903 (P60903 whole entry): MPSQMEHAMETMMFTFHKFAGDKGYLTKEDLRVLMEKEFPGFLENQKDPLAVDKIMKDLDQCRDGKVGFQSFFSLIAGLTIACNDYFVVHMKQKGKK

Kd: 0.5 µM
Substance: Annexin A2 N-terminus (from UniProt P07355)
